# Molecular target: Aldob (aldolase B) (UniProt P05062)
# Assay: anti-Flag (Aldob) co-IP, Myc-Akt1 blot
# Conditions: reference: Myc-Akt1 wild type
Substance,binding against the reference (sites S473),binding against the reference (sites T308)
Akt1 (from UniProt P31749) Myc-Akt1 S473A,weaker,
Akt1 (from UniProt P31749) Myc-Akt1 T308A,,weaker
